{
  "source": "paper PMC5596348",
  "key": {"[1]": {"target": "streptolysin O (Streptococcus pyogenes (group A Streptococcus), strain 854) (UniProt P0C0I3)", "assay": "BLI; […] (Octet RED384), […]; 20 mM Tris, 300 mM NaCl, 0.01% Tween 20, 1 mM DTT, pH 7.4; 30°C; […]"}, "[2]": {"target": "streptolysin O (Streptococcus pyogenes (group A Streptococcus), strain 854) (UniProt P0C0I3)", "assay": "[…], room temperature; […], pH 7.4; […]"}, "[3]": {"target": "streptolysin O (Streptococcus pyogenes (group A Streptococcus), strain 854) (UniProt P0C0I3)", "assay": "[…]; PBS, 1 mM DTT, pH 7.4; room temperature"}},
  "note": "pKd: −log10 of the molar value.",
  "data": [
    {"substance": "190NADase, C-terminal glycohydrolase (catalytic) domain of NADase (domain or fragment)", "values": [
      {"measurement": "pKd", "setting": "[1]", "result": 4.69}
    ]},
    {"substance": "NAD+-glycohydrolase, full-length (enzyme)", "values": [
      {"measurement": "stoichiometry N", "setting": "[2]", "result": 1},
      {"measurement": "stoichiometry N", "setting": "[3]", "result": 1},
      {"measurement": "pKd", "setting": "[1]", "result": 5.59}
    ]}
  ]
}
